# Source: publication PMC8805217, “Crystal structure of a hypothetical protein from Giardia lamblia” (Acta Crystallographica. Section F, Structural Biology …, 2022)
# B1: hypothetical protein from Giardia lamblia (GilaA.00312.a) (natural protein)
# chain: GPGSMIYGILSKNLGMPTPTFLVCPDVVKFENVGQIAVVNGMVYLGGSVGIDKSGTLHKGLEEQTRQTFDNIRKCLEYANSGLDYIVSLNIFLSTSLSDSEEARFNELYREVFCVPATRPCRCCVRAQLQEGLLVEVVNVVAAQK
# notes: hypothetical protein of Giardia lamblia GL50803_14299, 141 amino acids, amino acids 1-141 of UniProt A8BD71; Homotrimer in the crystal structure (PDB 3i3f); also called hypothetical G. lamblia protein; GL50803_14299; source: E. coli BL21(DE3)R3 Rosetta, purified (IMAC, 3C cleavage of the His tag, reverse IMAC, SEC); not shown: 6xHis, N-terminal, cleaved
# Molecular target: the molecule itself
# Assay: crystal structure; X-ray, molecular replacement, 1.35 Å; sitting-drop vapor diffusion at 290 K, protein in 20 mM HEPES pH 7.0, 300 mM NaCl, 5% glycerol, 1 mM TCEP; reservoir 100 mM Tris pH 5.5, 25% PEG 3350, 200 mM ammonium acetate
protein,measurement,value
B1,stoichiometry N,3
